Assay results: PMC12205875, “CRY1–GAIP1 complex mediates blue light to hinder the repression of PIF5 on AGL5 to promote carotenoid biosynthesis in mango fruit”

T1: MiGAIP1 (DELLA) (Mangifera indica, UniProt UPI001CFB1029 1-553)
T1 sequence: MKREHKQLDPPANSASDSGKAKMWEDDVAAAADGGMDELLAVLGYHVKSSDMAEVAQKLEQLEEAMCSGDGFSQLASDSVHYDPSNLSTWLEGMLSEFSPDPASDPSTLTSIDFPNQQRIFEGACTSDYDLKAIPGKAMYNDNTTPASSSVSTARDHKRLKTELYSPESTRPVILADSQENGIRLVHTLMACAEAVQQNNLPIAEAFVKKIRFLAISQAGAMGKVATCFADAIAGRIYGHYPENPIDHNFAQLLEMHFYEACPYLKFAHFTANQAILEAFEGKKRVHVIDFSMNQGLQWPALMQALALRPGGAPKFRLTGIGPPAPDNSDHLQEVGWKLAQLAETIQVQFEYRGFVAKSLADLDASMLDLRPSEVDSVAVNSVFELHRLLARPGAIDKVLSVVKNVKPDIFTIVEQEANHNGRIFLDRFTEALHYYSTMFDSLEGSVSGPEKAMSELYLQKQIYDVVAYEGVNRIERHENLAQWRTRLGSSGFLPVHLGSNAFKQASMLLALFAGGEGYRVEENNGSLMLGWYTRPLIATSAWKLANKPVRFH

T2: MiPIF5 (Mangifera indica, UniProt UPI001CFAADE4 1-539)
T2 sequence: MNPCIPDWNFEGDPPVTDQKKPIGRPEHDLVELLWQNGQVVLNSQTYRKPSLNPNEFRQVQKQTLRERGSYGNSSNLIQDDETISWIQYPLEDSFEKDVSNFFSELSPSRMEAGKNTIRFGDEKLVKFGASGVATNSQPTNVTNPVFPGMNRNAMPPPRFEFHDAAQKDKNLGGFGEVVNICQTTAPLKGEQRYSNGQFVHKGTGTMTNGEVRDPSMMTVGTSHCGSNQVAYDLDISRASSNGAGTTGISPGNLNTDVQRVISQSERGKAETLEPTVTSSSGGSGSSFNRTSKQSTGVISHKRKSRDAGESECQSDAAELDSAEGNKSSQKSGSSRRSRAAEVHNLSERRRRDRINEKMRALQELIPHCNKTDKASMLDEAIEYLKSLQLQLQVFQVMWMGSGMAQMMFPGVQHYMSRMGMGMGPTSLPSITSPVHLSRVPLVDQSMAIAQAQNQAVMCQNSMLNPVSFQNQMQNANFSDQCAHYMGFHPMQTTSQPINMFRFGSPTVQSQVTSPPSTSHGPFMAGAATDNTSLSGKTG

B1: ProMiAGL5-Probe (MiGAIP1) (dsDNA)
DNA 1: TTTCAACAATCAAGAAATGAGAAAGGAAAGAAGAAAAAAGAAAGAAAAAAAAAAAAAGTGTCT
DNA 2: AGACACTTTTTTTTTTTTTCTTTCTTTTTTCTTCTTTCCTTTCTCATTTCTTGATTGTTGAAA
B2: ProMiAGL5-Probe (MiPIF5) (dsDNA)
DNA 1: GAGCATCACATGGGAGTCTATTTTCACTTTGTAATTTGAAAAGGAAAGAGATATATAC
DNA 2: GTATATATCTCTTTCCTTTTCAAATTACAAAGTGAAAATAGACTCCCATGTGATGCTC

Key:
[1] = target: T1, MiGAIP1 (DELLA); assay: EMSA; LightShift Chemiluminescent EMSA kit (Thermo) per manufacturer; buffer, salt, pH and temperature not stated; settings: protein: recombinant; tags: GST (pGEX4T); label: 3' biotin; blunt
[2] = target: T2, MiPIF5; assay: as above; settings: protein: recombinant; tags: GST (pGEX4T); chain copies: 2; label: 3' biotin; blunt

Binder | binding result [1] | binding result [2]
B1 | binds | 
B2 |  | binds
